T1: GST-tagged full-length ECT2 (Arabidopsis thaliana, UniProt Q9LJE5 1-667)
T1 construct: also called GST-ECT2; Evolutionarily conserved C-terminal region 2
T1 sequence (looked up): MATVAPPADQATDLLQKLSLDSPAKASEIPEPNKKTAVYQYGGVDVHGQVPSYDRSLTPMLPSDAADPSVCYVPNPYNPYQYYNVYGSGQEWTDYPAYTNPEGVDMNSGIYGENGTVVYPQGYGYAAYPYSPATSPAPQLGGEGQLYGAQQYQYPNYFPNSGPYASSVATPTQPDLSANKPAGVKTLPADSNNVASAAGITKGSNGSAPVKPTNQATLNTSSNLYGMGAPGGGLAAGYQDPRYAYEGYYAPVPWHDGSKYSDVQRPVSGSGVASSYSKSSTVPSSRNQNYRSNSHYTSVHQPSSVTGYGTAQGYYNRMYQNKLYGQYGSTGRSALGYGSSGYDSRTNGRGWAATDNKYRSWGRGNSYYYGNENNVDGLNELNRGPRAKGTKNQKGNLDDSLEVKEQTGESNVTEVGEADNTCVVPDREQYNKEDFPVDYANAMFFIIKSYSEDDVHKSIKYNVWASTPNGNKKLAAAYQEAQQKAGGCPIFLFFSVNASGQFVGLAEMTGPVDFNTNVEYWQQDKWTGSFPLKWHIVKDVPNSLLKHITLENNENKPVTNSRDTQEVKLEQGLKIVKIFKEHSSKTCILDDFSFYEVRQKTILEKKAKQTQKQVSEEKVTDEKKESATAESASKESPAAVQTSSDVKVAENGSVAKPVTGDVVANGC


Legend:
[1] = target: T1, GST-tagged full-length ECT2; test: pull-down; GST pull-down: 100 pmol pre-cleared MBP-PAB2 or MBP-PAB4 mixed with 100 pmol GST or GST-ECT2 (full length or fragments) and glutathione magnetic agarose beads, 2 h at 4 °C, IPP buffer (150 mM NaCl, 0.1% NP-40, 10 mM Tris pH 7.4, 0.5 mM DTT); immunoblot with anti-MBP and anti-GST; conditions: both partners purified
[2] = target: T1, GST-tagged full-length ECT2; test: pull-down; GST pull-down: purified MBP-ECT3 and SUMO-ECT4 incubated with GST-ECT2 or GST alone, GST magnetic beads, immunoblot with anti-GST, anti-MBP and anti-SUMO; conditions: both partners purified

binding result [1] | binding result [2] | Binder
binds | – | MBP-tagged PAB2 (natural protein, Arabidopsis thaliana, UniProt P42731 1-629, looked up, also called MBP-PAB2; source: Escherichia coli BL-21 Gold, purified (amylose resin)) MAQVQLQGQTPNGSTAAVTSAPATSGGATATQFGNTSLYVGDLDFNVTDSQLFDAFGQMGTVVTVRVCRDLVTRRSLGYGYVNFTNPQDAARAIQELNYIPLYGKPIRVMYSHRDPSVRRSGAGNIFIKNLDESIDHKALHDTFSSFGNIVSCKVAVDSSGQSKGYGFVQYANEESAQKAIEKLNGMLLNDKQVYVGPFLRRQERDSTANKTKFTNVYVKNLAESTTDDDLKNAFGEYGKITSAVVMKDGEGKSKGFGFVNFENADDAARAVESLNGHKFDDKEWYVGRAQKKSERETELRVRYEQNLKEAADKFQSSNLYVKNLDPSISDEKLKEIFSPFGTVTSSKVMRDPNGTSKGSGFVAFATPEEATEAMSQLSGKMIESKPLYVAIAQRKEDRRVRLQAQFSQVRPVAMQPSVGPRMPVYPPGGPGIGQQMFYGQAPPAMIPPQPGYGYQQQLVPGMRPGGGPVPSFFMPMVQPQQQRPGGGRRPGGIQHSQQQNPMMQQQMHPRGRMFRYPQGRGGSGDVPPYDMGNNMPLTIGALASNLSNATPEQQRTMLGEVLYPLVEQVEAESAAKVTGMLLEMDQTEVLHLLESPEALKAKVAEAMDVLRSVAAGGATEQLASLNLS
– | binds | maltose-binding protein (MBP)-tagged ECT3 (natural protein, Arabidopsis thaliana, UniProt F4K1Z0 1-495, looked up, also called MBP-ECT3; source: Escherichia coli, purified recombinant protein) MANPDHVSDVLHNLSIDPTTKALAPDSETKLQGAYGGNGNDFLLNDELVEATKIGKPSLLSKDGGVTKDKGSNLKKLGYQSAAYNAKGSYGKGAYAYGYYPPAYQYPRHGYTGSYASGKTNLQYQYLTQQGRSAGNGQSYGGYMDNIYSNYGMCGPYTNGYGYGSYGYDSWKYMPNWYAVNNTYKPRNGYHGYGKENIEGLNEMNRGPRAKGFNSQDGSKVMAVSLKEQRVTETEKLSEDVSLLDPKDYNKIDFPETYTEAKFYVIKSYSEDDIHKSIKYSVWSSTPNGNKKLDASYNEAKQKSDGCPVFLLFSVNTSGQFVGLAEMVGPVDFNKTVEYWQQDKWIGCFPVKWHFVKDIPNSSLRHITLENNENKPVTNSRDTQEVKLEQGIKVIKIFKDHASKTCILDDFEFYENRQKIIQERKSKHLQIKKQTLVANADKGVMSKINLVKPQESTTASEDAAALGVAAEVTKESKVVKETELPVEKNAVATAC
binds | – | MBP-tagged PAB4 (natural protein, Arabidopsis thaliana, UniProt O22173 1-662, looked up, also called MBP-PAB4; source: Escherichia coli BL-21 Gold, purified (amylose resin)) MAQVQAPSSHSPPPPAVVNDGAATASATPGIGVGGGGDGVTHGALCSLYVGDLDFNVTDSQLYDYFTEVCQVVSVRVCRDAATNTSLGYGYVNYSNTDDAEKAMQKLNYSYLNGKMIRITYSSRDSSARRSGVGNLFVKNLDKSVDNKTLHEAFSGCGTIVSCKVATDHMGQSRGYGFVQFDTEDSAKNAIEKLNGKVLNDKQIFVGPFLRKEERESAADKMKFTNVYVKNLSEATTDDELKTTFGQYGSISSAVVMRDGDGKSRCFGFVNFENPEDAARAVEALNGKKFDDKEWYVGKAQKKSERELELSRRYEQGSSDGGNKFDGLNLYVKNLDDTVTDEKLRELFAEFGTITSCKVMRDPSGTSKGSGFVAFSAASEASRVLNEMNGKMVGGKPLYVALAQRKEERRAKLQAQFSQMRPAFIPGVGPRMPIFTGGAPGLGQQIFYGQGPPPIIPHQPGFGYQPQLVPGMRPAFFGGPMMQPGQQGPRPGGRRSGDGPMRHQHQQPMPYMQPQMMPRGRGYRYPSGGRNMPDGPMPGGMVPVAYDMNVMPYSQPMSAGQLATSLANATPAQQRTLLGESLYPLVDQIESEHAAKVTGMLLEMDQTEVLHLLESPEALNAKVSEALDVLRNVNQPSSQGSEGNKSGSPSDLLASLSINDHL

Source: publication PMC10150487, “m^6A readers ECT2/ECT3/ECT4 enhance mRNA stability through direct recruitment of the poly(A) binding proteins in Arabidopsis” (Genome Biology, 2023)
